Laboratory results from the supplement of paper PMC7877785.
± gives the uncertainty stated by the source.

Assay: self-splicing fitness, log relative to wild type (ln ratio); higher = more splicing; Tetrahymena group I intron in knt gene, E. coli kanamycin selection, DiMSum; sequences stand for … in CUCUCU…GGAGGGAAAAGUUAUCAGGCAUGCACCUGGUAGCUAGUCUUUAAACCAAUAGAUUGCAUCGGUUUAAAAGGCAAGACCGUCAAAUUGCGGGAAAGGGGUCAACAGCCGUUCAGUACCAAGUCUCAGGGGAAACUUUGAGAUGGCCUUGCAAAGGGUAUGGUAAUAAGCUGACGGACAUGGUCCUAACCACGCAGCCAAGUCCUAAGUCAACAGAUCUUCUGUUGAUAUGGAUGCAGUUCACAGACUAAAUGUCGGUCGGGGAAGAUGUAUUCUUCUCAUAAGAUAUAGUCGGACCUCUCCUUAAUGGGAGCUAGCGGAUGAAGUGAUGCAACACUGGAGCCGCUGGGAACUAAUUUGUAUGCGAAAGUAUAUUGAUUAGUUUUGGAGUACUCGUGGUCG
Outline: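 Library with all eight P1ex-region intron nucleotides randomised, intron inside the knt kanamycin-resistance gene on pET-22b(+), in E. coli BL21(DE3). Cells grew overnight at 37°C or 30°C on LB agar with or without 25 μg/mL kanamycin (plus 100 μg/mL carbenicillin, 50 μM IPTG, 0.2% rhamnose), in six replicate transformations. Pooled colonies were amplicon-sequenced on Illumina HiSeq 2500. DiMSum fitness is the error-weighted combination of wild-type-normalised replicate fold changes, kanamycin versus none.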

Sequence | self-splicing fitness (ln) (30 °C) | self-splicing fitness (ln) (37 °C)
GGUUAGCAAUAUUACGUUGU | -2.02 ± 0.15 | -1.71 ± 0.18
CCCUAGCAAUAUUACGGCUG | -2.46 ± 0.28 | -1.38 ± 0.3
AGUUAGCAAUAUUACGGAUG | -0.996 ± 0.11 | -0.801 ± 0.15
GGGCAGCAAUAUUACGUAGC | -1.79 ± 0.22 | -0.913 ± 0.28
UCGUAGCAAUAUUACGUUAA | -1.59 ± 0.18 | -1.16 ± 0.17
UUUGAGCAAUAUUACGAAGG | -3.13 ± 0.34 | -1.66 ± 0.31
CCAUAGCAAUAUUACGGGGC | -2.41 ± 0.15 | -2.95 ± 0.29
GGUCAGCAAUAUUACGAUGG | -1.34 ± 0.076 | -0.299 ± 0.1
CCGAAGCAAUAUUACGCAAG | -1.83 ± 0.17 | -1.12 ± 0.17
UUGCAGCAAUAUUACGUGUG | -2.1 ± 0.087 | -1.68 ± 0.12
CUUAAGCAAUAUUACGGUGU | -3.31 ± 0.22 | -2.02 ± 0.18
GCGUAGCAAUAUUACGGGAU | -1.51 ± 0.14 | -1.38 ± 0.21
UCGUAGCAAUAUUACGCAUU | -3.24 ± 0.23 | -1.84 ± 0.15
CUUCAGCAAUAUUACGAUGC | -2.93 ± 0.21 | -2.23 ± 0.23
UUGAAGCAAUAUUACGUGCU | -3.06 ± 0.17 | -1.97 ± 0.16
CCCAAGCAAUAUUACGCGUG | -3.31 ± 0.12 | -3.1 ± 0.18
CGAAAGCAAUAUUACGCGGU | -2.88 ± 0.17 | -2.41 ± 0.18
AAGUAGCAAUAUUACGGUGC | – | -2.76 ± 0.32
UGGAAGCAAUAUUACGGUUG | -1.46 ± 0.1 | -0.621 ± 0.13

Sequence | self-splicing fitness (ln) (30 °C) | self-splicing fitness (ln) (37 °C)
GCGGAGCAAUAUUACGUACC | -3.69 ± 0.36 | -0.124 ± 0.43
AUACAGCAAUAUUACGUCGC | -2.42 ± 0.13 | -3.06 ± 0.26
UUAUAGCAAUAUUACGUACU | -1.49 ± 0.18 | -1 ± 0.23
GUGUAGCAAUAUUACGCUGG | -3.59 ± 0.38 | -1.54 ± 0.22
UUCAAGCAAUAUUACGACGA | -0.243 ± 0.084 | 0.213 ± 0.084
AAGCAGCAAUAUUACGAACC | -2.26 ± 0.14 | -0.526 ± 0.15
UGCAAGCAAUAUUACGAAGG | -1.6 ± 0.12 | -1.47 ± 0.2
CGGUAGCAAUAUUACGUGGC | -3.4 ± 0.17 | -3.09 ± 0.23
AAAAAGCAAUAUUACGUAGC | -3.26 ± 0.15 | -1.64 ± 0.12
AACCAGCAAUAUUACGGCAC | -0.615 ± 0.055 | -0.257 ± 0.079
ACUCAGCAAUAUUACGGCAC | -1.24 ± 0.17 | -0.799 ± 0.25
AUACAGCAAUAUUACGCUUA | -1.67 ± 0.12 | -0.741 ± 0.099
AAAGAGCAAUAUUACGUCGU | -3.75 ± 0.26 | -2.62 ± 0.17
CAACAGCAAUAUUACGAAAA | -2.73 ± 0.3 | -1.38 ± 0.26
GGCAAGCAAUAUUACGGCGG | -2.44 ± 0.19 | -1.13 ± 0.2
AUGCAGCAAUAUUACGUUGC | -4.01 ± 0.18 | -2.25 ± 0.24
CGCGAGCAAUAUUACGACAG | -0.942 ± 0.11 | -0.403 ± 0.16
CUGCAGCAAUAUUACGGUUC | -3.41 ± 0.1 | -2.48 ± 0.13
